Source: US6022951A (priority 1996, dated 2000)

Assay: stability against denaturation by guanidine hydrochloride (remaining biotin-binding ability)
Assay type: physicochemical
Procedure: Biotin-binding ability was used as an estimate of the structural stability.
Structural stability of core streptavidins against denaturation was estimated from the biotin-binding ability after incubation in guanidine hydrochloride solutions at pH 7.4 and pH 1.5. […] Then, 1.4 μl (680 pmol) of D-[carbonyl-^14 C]biotin was added to each solution. The mixture was incubated at 22° C. for 10 minutes and streptavidin-biotin complexes were separated from free, unbound biotin using PD-10 columns which had been equilibrated with the same guanidine hydrochloride solution (R. -D. Wei, Methods Enzymol. 18A:424-27, 1980).
All of the three core streptavidins bound more than 0.96 molecules of biotin per subunit at pH 7.4 without guanidine hydrochloride and the biotin-binding ability remaining in guanidine hydrochloride is indicated in percent.

[1] = 4 M guanidine hydrochloride, pH 1.5
[2] = 6 M guanidine hydrochloride, pH 7.4

With “full-length streptavidin: full length streptavidin, monomer of 159 amino acids” the “biotin bound per subunit in guanidine hydrochloride” value [1] was “about 0.826 molecules biotin per subunit”, the “reduction (loss) of biotin-binding ability” value [1] was about 15% and the “biotin bound per subunit in guanidine hydrochloride” value [2] was “about 0.768 molecules biotin per subunit”. The “reduction in biotin-binding ability” value [2] was “about 20%”.
